Measured values: article PMC6158211

B1: 3xFlag-UBL3 (wild-type ubiquitin-like 3/membrane-anchored Ub-fold protein) [not stated] / ATXN10 [human (endogenous in MDA-MB-231)] (parent)
chain 1: MSSNVPADMINLRLILVSGKTKEFLFSPNDSASDIAKHVYDNWPMDWEEEQVSSPNILRLIYQGRFLHGNVTLGALKLPFGKTTVMHLVARETLPEPNSQGQRNREKTGESNCCVIL
chain 2: MAAPRPPPARLSGVMVPAPIQDLEALRALTALFKEQRNRETAPRTIFQRVLDILKKSSHAVELACRDPSQVENLASSLQLITECFRCLRNACIECSVNQNSIRNLDTIGVAVDLILLFRELRVEQESLLTAFRCGLQFLGNIASRNEDSQSIVWVHAFPELFLSCLNHPDKKIVAYSSMILFTSLNHERMKELEENLNIAIDVIDAYQKHPESEWPFLIITDLFLKSPELVQAMFPKLNNQERVTLLDLMIAKITSDEPLTKDDIPVFLRHAELIASTFVDQCKTVLKLASEEPPDDEEALATIRLLDVLCEMTVNTELLGYLQVFPGLLERVIDLLRVIHVAGKETTNIFSNCGCVRAEGDISNVANGFKSHLIRLIGNLCYKNKDNQDKVNELDGIPLILDNCNISDSNPFLTQWVIYAIRNLTEDNSQNQDLIAKMEEQGLADASLLKKVGFEVEKKGEKLILKSTRDTPKP
B2: 3xFlag-UBL3 (wild-type ubiquitin-like 3/membrane-anchored Ub-fold protein) [not stated] / TUBB4A [human (endogenous in MDA-MB-231)] (parent)
chain 1: B1 chain 1
chain 2: MREIVHLQAGQCGNQIGAKFWEVISDEHGIDPTGTYHGDSDLQLERINVYYNEATGGNYVPRAVLVDLEPGTMDSVRSGPFGQIFRPDNFVFGQSGAGNNWAKGHYTEGAELVDAVLDVVRKEAESCDCLQGFQLTHSLGGGTGSGMGTLLISKIREEFPDRIMNTFSVVPSPKVSDTVVEPYNATLSVHQLVENTDETYCIDNEALYDICFRTLKLTTPTYGDLNHLVSATMSGVTTCLRFPGQLNADLRKLAVNMVPFPRLHFFMPGFAPLTSRGSQQYRALTVPELTQQMFDAKNMMAACDPRHGRYLTVAAVFRGRMSMKEVDEQMLSVQSKNSSYFVEWIPNNVKTAVCDIPPRGLKMAATFIGNSTAIQELFKRISEQFTAMFRRKAFLHWYTGEGMDEMEFTEAESNMNDLVSEYQQYQDATAEEGEFEEEAEEEVA

Variants of: B1
Assay: Flag antibody-bead pull-down, on-bead digestion, LC-MS/MS label-free quantification
Settings: with ATXN10 [human (endogenous in MDA-MB-231)]; lysates of MDA-MB-231 cells; triplicate pull-downs; read off a plot

Row | screen value | Variant
1 | 5.1 log2 | chain 1 C113A C114A

Variants of: B2
Assay: as above
Settings: with TUBB4A [human (endogenous in MDA-MB-231)]; lysates of MDA-MB-231 cells; triplicate pull-downs; read off a plot

Row | screen value | Variant
2 | 3.2 log2 | chain 1 C113A C114A
